Test results reported in US20210355194A1 (TWIST BIOSCIENCE, published 2021).

B1: variant 6-76 (Fc fusion)
VHH: EVQLVESGGGLVQPGGSLRLSCAASGLAFDFDGMGWFRQAPGKEREGVAAINSGGSTYYADSVKGRFTISADNSKNTAYLQMNSLKPEDTAVYYCARFFRAHDYWGQGTLVTVSS
B2: variant 6-55 (Fc fusion)
VHH: EVQLVESGGGLVQPGGSLRLSCAASGFTMSSSWMGWFRQAPGKEREFVARITSGGSTGYADSVKGRFTISADNSKNTAYLQMNSLKPEDTAVYYCASVDGYFDYWGQGTLVTVSS
B3: variant 6-20 (Fc fusion)
VHH: EVQLVESGGGLVQPGGSLRLSCAASGSTLPYHAMGWFRQAPGKEREFVAAITWNGASTSYADSVKGRFTISADNSKNTAYLQMNSLKPEDTAVYYCARDRYYDTSASYFESETWGQGTLVTVSS
B4: variant 6-73 (Fc fusion)
VHH: EVQLVESGGGLVQPGGSLRLSCAASGHTFSGYAMGWFRQAPGKEREFVAVITREGSTYYADSVKGRFTISADNSKNTAYLQMNSLKPEDTAVYYCARLGGEGFDYWGQGTLVTVSS
B5: variant 5-60 (Fc fusion)
VHH: EVQLVESGGGLVQPGGSLRLSCAASGRSFSSHRMGWFRQAPGKEREFVAAIMWSGSHRNYADSVKGRFTISADNSKNTAYLQMNSLKPEDTAVYYCAAIAYEEGVYRWDWGQGTLVTVSS
B6: variant 5-15 (Fc fusion)
VHH: EVQLVESGGGLVQPGGSLRLSCAASGFTFDGAAMGWFRQAPGKEREFVATIRWTNSTDYADSVKGRFTISADNSKNTAYLQMNSLKPEDTAVYYCARGRYGIVERWGQGTLVTVSS
B7: variant 5-55 (Fc fusion)
VHH: EVQLVESGGGLVQPGGSLRLSCAASGIDVNRNAMGWFRQAPGKEREFVAAITWSGGWRYYADSVKGRFTISADNSKNTAYLQMNSLKPEDTAVYYCATTFGDAGIPDQYDFGWGQGTLVTVSS
B8: variant 5-49 (Fc fusion)
VHH: EVQLVESGGGLVQPGGSLRLSCAASGRTSTVNGMGWFRQAPGKEREFVASISQSGAATAYADSVKGRFTISADNSKNTAYLQMNSLKPEDTAVYYCAADRTYSYSSTGYYWGQGTLVTVSS
B9: variant 5-29 (Fc fusion)
VHH: EVQLVESGGGLVQPGGSLRLSCAASGFTFDDYPMGWFRQAPGKEREGVASVLRGGYTWYADSVKGRFTISADNSKNTAYLQMNSLKPEDTAVYYCAKDWATGLAWGQGTLVTVSS
B10: 4-49 (VHH)
VHH: EVQLVESGGGLVQPGGSLRLSCAASGRTFGDYIMGWFRQAPGKERESVAAINWSAGYTAYADSVKGRFTISADNSKNTAYLQMNSLKPEDTAVYYCARASPNTGWHFDHWGQGTLVTVSS
B11: 4-52 (VHH)
VHH: EVQLVESGGGLVQPGGSLRLSCAASGRSFSNSVMGWFRQAPGKEREFVARITWNGGSTYYADSVKGRFTISADNSKNTAYLQMNSLKPEDTAVYYCATTENPNPRWGQGTLVTVSS
B12: 4-121 (VHH)
VHH: EVQLVESGGGLVQPGGSLRLSCAASGTAASFNPMGWFRQAPGKEREFVAAITSGGSTNYADSVKGRFTISADNSKNTAYLQMNSLKPEDTAVYYCAAIAYEEGVYRWDWGQGTLVTVSS

molecular target: T1, SARS-COV2-S1 RBD (mouse IgG2Fc tag) (SARS-CoV-2, UniProt P0DTC2 319-537); assay: FACS, blocks S1 RBD-mFc binding to ACE2 on Vero E6

B1 and B2 are within 1.5-fold of each other in IC50: 1.11 nM for the first, 0.97 nM for the second.

B3 and B4 are within 1.5-fold of each other in IC50: 0.76 nM for the first, 1.01 nM for the second.

molecular target: T2, Acro SARS-CoV-2 (COVID-19) S1 protein (SARS-CoV-2, UniProt P0DTC2 16-685); assay: SPR
T2 construct: also called SARS-CoV-2 S1

B1 and B2 are within 1.5-fold of each other in Kd: 33.5 nM for the first, 25.2 nM for the second.

Going from B3 to B4, the Kd rises from 20.9 nM to 103 nM (4.9-fold). The first binds more tightly here.

Work on B5 yielded a Kd of 29.4 nM.

molecular target: T1, SARS-COV2-S1 RBD (mouse IgG2Fc tag); assay: not given

Going from B6 to B7, the IC50 falls from 2.19 nM to 1.45 nM (1.5-fold).

Going from B8 to B9, the IC50 falls from 5.61 nM to 2.19 nM (2.6-fold).

B5 was tested, and the IC50 was 2.15 nM.

molecular target: T1, SARS-COV2-S1 RBD (mouse IgG2Fc tag); assay: column not explained; likely FACS, S1 RBD on Vero E6

Going from B1 to B2, the “MFI Fold Decrease” value falls from 9.96 fold to 7.98 fold.

First: B3
Second: B4
The “MFI Fold Decrease” value of the first is higher: 9.95 fold for the first, 7.99 fold for the second.

molecular target: human ACE2 (human, UniProt Q9BYF1 18-740); assay: not given
Sequence (Q9BYF1 18-740 limits assumed): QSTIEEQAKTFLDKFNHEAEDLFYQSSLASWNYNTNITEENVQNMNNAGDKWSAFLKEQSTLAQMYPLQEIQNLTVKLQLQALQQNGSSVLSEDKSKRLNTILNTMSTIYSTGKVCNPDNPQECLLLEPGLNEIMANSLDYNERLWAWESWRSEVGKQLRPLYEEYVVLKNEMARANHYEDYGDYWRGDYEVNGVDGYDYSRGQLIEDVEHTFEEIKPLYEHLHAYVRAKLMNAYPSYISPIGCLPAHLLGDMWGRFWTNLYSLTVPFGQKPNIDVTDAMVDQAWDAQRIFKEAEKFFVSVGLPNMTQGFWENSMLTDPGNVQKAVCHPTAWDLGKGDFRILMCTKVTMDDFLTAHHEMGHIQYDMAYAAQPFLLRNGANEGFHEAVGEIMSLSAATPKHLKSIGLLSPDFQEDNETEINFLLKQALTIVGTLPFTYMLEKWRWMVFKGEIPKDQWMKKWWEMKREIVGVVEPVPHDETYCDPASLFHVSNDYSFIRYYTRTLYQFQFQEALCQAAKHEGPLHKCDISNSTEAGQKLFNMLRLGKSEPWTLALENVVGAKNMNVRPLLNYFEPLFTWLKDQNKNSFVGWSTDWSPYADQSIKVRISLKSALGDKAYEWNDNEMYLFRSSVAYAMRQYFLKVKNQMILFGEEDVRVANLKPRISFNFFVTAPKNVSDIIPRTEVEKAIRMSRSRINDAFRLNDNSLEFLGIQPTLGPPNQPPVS

Compared with B10, B11 is 170-fold lower in IC50: 58 nM for the first, 0.35 nM for the second. The second is the more potent here.

B12 was tested, and the IC50 was 0.91 nM.
